Experiments:
[1] = target: Human bufavirus 1 (BuV1) VP2, assembled as virus-like particles (human bufavirus 1); assay: cryo-EM structure; purified BuV1 VP2 VLPs dialyzed to pH 4.0 in universal buffer (20 mM HEPES, 20 mM MES, 20 mM sodium acetate, 150 mM NaCl); icosahedral reconstruction
[2] = target: Human bufavirus 1 (BuV1) VP2, assembled as virus-like particles (human bufavirus 1); assay: cryo-EM structure; purified BuV1 VP2 VLPs dialyzed to pH 7.4 in universal buffer (20 mM HEPES, 20 mM MES, 20 mM sodium acetate, 150 mM NaCl); icosahedral reconstruction
[3] = target: Human bufavirus 1 (BuV1) VP2, assembled as virus-like particles (human bufavirus 1); assay: cryo-EM structure; purified BuV1 VP2 VLPs dialyzed to pH 2.6 in 50 mM glycine HCl, 150 mM NaCl; icosahedral reconstruction; full and half (broken) capsids seen in micrographs
[4] = target: Human bufavirus 1 (BuV1) VP2, assembled as virus-like particles (human bufavirus 1); assay: cryo-EM structure; purified BuV1 VP2 VLPs co-incubated with 6SLN (or 3SLN) glycan in 10-fold molar excess of the potential binding sites; icosahedral reconstruction, 60-mer model

Measured: stoichiometry N

Human bufavirus 1 (BuV1) VP2, assembled as virus-like particles (natural protein)
60: all assays above
